Data set [1] concerns the target Polypeptides with M15-L-labeled P1 residues A, I, L, M, Q, V.
For data set [2], the target named is T1, M15-LAAR.
T1 chain: LAAR

Data set [3] deals with T2, M19-AAAR.
T2 chain: AAAR

The target in data set [4] is T3, M19-LAAR.
T3 chain: LAAR

For data set [5], the target named is M15-L-P1-AR peptides with D or E in the P1 position.
Data set [6] has as its target T4, Test peptide LMSHNARGAEDDVVRGGGGK linked to a DNA oligo.
T4 chain: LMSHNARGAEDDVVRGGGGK

B1: M15-L_Z001 modified cleavase (Thermomonas hydrothermalis S46 DPP scaffold) (protein)
chain: MHKTRLVAALAAALATLAPAAWADEGMWVPQQLPEIAGALKKAGLKLDPKQLSDLTGDPMGAVVSLGGCTGSFVSPQGLVATNHHCAYGAIQLNSTPEKNLIKDGFNAPTQADELSAGPNARIYVLEGITDVTAQAKAAMAAAGNDPVARANALEAFEKKITSDCEAEPGYRCRVYSFMGGITYRLFKNLEIKDVRLVYAPPSSVGKFGGDIDMGMWPTHTGDFSFYRAYVGKDGKPAPYSKDNVPYRPKHWLKIADTPLGEGDFVMVAGYPGRTDRYALVAEFENTQNWLYPAISKAYKDQIALVEAAAKDNPEIAVKYAAALAGWNRTSKNFDGQLEGFKRNDVLAIKRREEAAVLEWLRARGKAGTPALEAHAALVKLVADTARTQERDLVLGSFNRTGIIGVAVNLYRLAIERQKPDAEREPGYQQRDLPVIEGSLKQMERRYVPAMDRQLRAYWLDRYVALPAAQHVAAVDAWLGGSDKAAAEAALARLDQSRLGSLEERLKWFNADRAAFEASTDPAIQYAVAVMPTLLAMEQQAKTRYGVALEARPRYLQAVVDYKKSKGQAVYPDANSTLRITYGHVKGYTGLNGKVYTPFTTLEEVAAKETGVEPFDNPKALLEAVAAKRYAGLADARLGTVPVNFLADLDITGGNSGSPVLDANGRLVGLAFAGTLESVASNWVFDPVLTRMISVDQRYMRWIMQEVMPAPQLLEELGVPPRQ
As for B1, the cleavage result in data set [1] is recorded as “provided 100% cleavage”. Moreover, the “cleavage efficiency, time course 5, 10, 20, 30 and 60 minutes” value in data set [2] is listed as “the M15-L_Z001 cleavase provided better specificity towards the M15-labeled polypeptide”.

B2: P1 cutter 1 (Thermomonas hydrothermalis S46 DPP scaffold) (protein)
chain: MHKTRLVAALAAALATLAPAAWADEGMWVPQQLPEIAGALKKAGLKLDPKQLSDLTGDPMGAVVSLGGCTGSFVSPQGLVATNHHCAYGAIQLNSTPEKNLIKDGFNAPTQADELSAGPNARIYVLEGITDVTAQAKAAMAAAGNDPVARANALEAFEKKITSDCEAEPGYRCRVYSFMGGITYRLFKNLEIKDVRLVYAPPSSVGKFGGDIDTMMWPKHTGDFSFYRAYVGKDGKPAPYSKDNVPYRPKHWLKIADTPLGEGDFVMVAGYPGRTDRYALVAEFENTQNWLYPAISKAYKDQIALVEAAAKDNPEIAVKYAAALAGWNYTSKNFDGQLEGFKRNDVLAIKRREEAAVLEWLRARGKAGTPALEAHAALVKLVADTARTQERDLVLGSFNRTGIIGVAVNLYRLAIERQKPDAEREPGYQQRDLPVIEGSLKQMERRYVPAMDRQLRAYWLDRYVALPAAQHVAAVDAWLGGSDKAAAEAALARLDQSRLGSLEERLKWFNADRAAFEASTDPAIQYAVAVMPTLLAMEQQAKTRYGVALEARPRYLQAVVDYKKSKGQAVYPDANSTLRITYGHVKGYTGLNGKVYTPFTTLEEVAAKETGVEPFDNPKALLEAVAAKRYAGLADARLGTVPVNFLADLDITGGNSGSPVLDANGRLVGLAFDGTLESVASNWVFDPVLTRMISVDQRYMRWIMQEVMPAPQLLEELGVPPRQ
In the case of B2, in data set [3], the “cleavage, product identified by LC-MS” value is “the observed mass of the cleaved product was 230.2 Da, which matched well with the expected mass for the M19-A (M+H) part (231.2 Da)”.

B3: M19_053 cleavase clone (Thermomonas hydrothermalis S46 DPP scaffold) (protein)
chain: MHKTRLVAALAAALATLAPAAWADEGMWVPQQLPEIAGALKKAGLKLDPKQLSDLTGDPMGAVVSLGGCTGSFVSPQGLVATNHHCAYGAIQLNSTPEKNLIKDGFNAPTQADELSAGPNARIYVLEGITDVTAQAKAAMAAAGNDPVARANALEAFEKKITSDCEAEPGYRCRVYSFMGGITYRLFKNLEIKDVRLVYAPPSSVGKFGGDIDMGMWPTHTGDFSFYRAYVGKDGKPAPYSKDNVPYRPKHWLKIADTPLGEGDFVMVAGYPGRTDRYALVAEFENTQNWLYPAISKAYKDQIALVEAAAKDNPEIAVKYAAALAGWNPTSKNFDGQLEGFKRNDVLAIKRREEAAVLEWLRARGKAGTPALEAHAALVKLVADTARTQERDLVLGSFNRTGIIGVAVNLYRLAIERQKPDAEREPGYQQRDLPVIEGSLKQMERRYVPAMDRQLRAYWLDRYVALPAAQHVAAVDAWLGGSDKAAAEAALARLDQSRLGSLEERLKWFNADRAAFEASTDPAIQYAVAVMPTLLAMEQQAKTRYGVALEARPRYLQAVVDYKKSKGQAVYPDANSTLRITYGHVKGYTGLNGKVYTPFTTLEEVAAKETGVEPFDNPKALLEAVAAKRYAGLADARLGTVPVNFLADLDITGGNSGSPVLDANGRLVGLAFAGTLESVASNWVFDPVLTRMISVDQRYMRWIMQEVMPAPQLLEELGVPPRQ
For B3, the “cleavage efficiency, time course 5, 10, 20, 30 and 60 minutes” value in data set [4] is reported as “the newly selected cleavase clone M19_053 provided better specificity towards the M19-labeled polypeptide”.

B4: M15-L_Z002 modified cleavase (Thermomonas hydrothermalis S46 DPP scaffold) (protein)
chain: MHKTRLVAALAAALATLAPAAWADEGMWVPQQLPEIAGALKKAGLKLDPKQLSDLTGDPMGAVVSLGGCTGSFVSPQGLVATNHHCAYGAIQLNSTPEKNLIKDGFNAPTQADELSAGPNARIYVLEGITDVTAQAKAAMAAAGNDPVARANALEAFEKKITSDCEAEPGYRCRVYSFMGGITYRLFKNLEIKDVRLVYAPPSSVGKFGGDIDMGMWPTHTGDFSFYRAYVGKDGKPAPYSKDNVPYRPKHWLKIADTPLGEGDFVMVAGYPGRTDRYALVAEFENTQNWLYPAISKAYKDQIALVEAAAKDNPEIAVKYAAALAGWNRTSKNFDGQLEGFKRNDVLAIKRREEAAVLEWLRARGKAGTPALEAHAALVKLVADTARTQERDLVLGSFNRTGIIGVAVNLYRLAIERQKPDAEREPGYQQRDLPVIEGSLKQMERRYVPAMDRQLRAYWLDRYVALPAAQHVAAVDAWLGGSDKAAAEAALARLDQSRLGSLEERLKWFNADRAAFEASTDPAIQYAVAVMPTLLAMEQQAKTRYGVALEARPRYLQAVVDYKKSKGQAVYPDANSTLRITYGHVKGYTGLNGKVYTPFTTLEEVAAKETGVEPFDNPKALLEAVAAKRYAGLADARLGTVPVNFLADLDITGGNSGSPVLDANGRLVGLAFAGTLESVASNWVFDPVLTRMISVDQRYMRWIMQEVMPAPQLLEELGVPPRQ
For the protein B4, the cleavage profile entry in data set [5] is “M15-L_Z002, having specificity towards D and E in the P1 position”.

B5: Unmodified dipeptidyl aminopeptidase DAP BII (SEQ ID NO: 13) (protein)
chain: GEGMWVPQQLPEIAGPLKKAGLKLSPQQISDLTGDPMGAVVALGGCTASFVSPNGLVVTNHHCAYGAIQLNSTAENNLIKNGFNAPTTADEVSAGPNARVFVLDEITDVTKDAKAAIAAAGDDALARTKALEAFEKKLIADCEAEAGFRCRLYSFSGGNTYRLFKNLEIKDVRLAYAPPGSVGKFGGDIDNWMWPRHTGDFAFYRAYVGKDGKPAAFSKDNVPYQPKHWLKFADQPLGAGDFVMVAGYPGSTNRYALAAEFDNTAQWTYPTIARHYKNQIAMVEAAGKQNADIQVKYAATMAGWNNTSKNYDGQLEGFKRIDAAGQKLREEAAVLGWLKGQGAKGQPALDAHAKLLDLLEQSKATRDRDLTLALFNNTAMLGSATQLYRLSIEREKPNAERESGYQERDLPAIEGGLKQLERRYVAAMDRQLQEYWLNEYIKLPADQRVAAVDAWLGGNDAAAVKRALDRLAGTKLGSTEERLKWFAADRKAFEASNDPAIQYAVAVMPTLLKLEQERKTRAGENLAARPVYLQALADYKKSQGEFVYPDANLSLRITFGNVMGYAPKDGMEYTPFTTLEGVVAKETGQDPFDSPKALLDAVAAKRYGGLEDKRIGSVPVNYLSDLDITGGNSGSPVLDAHGKLVGLAFDGNWESVSSNWVFDPKMTRMIAVDGRYLRWIMQEVYPAPQLLKEMNVGK
With B5, the “cleavage of a peptide-DNA fusion, gel bands at 0, 5, 30, 45, 60 min” value in data set [6] was “would continue gradually cleaving the polypeptide, creating multiple bands during the cleavage reaction (FIG. 10)”.

The record behind these values is patent publication US20230257727.
